Source: patent US20180127480A1 (Stanford University, published 2018)
Numbering of substitutions follows the chain as printed. Names and notes keep the numbering of the source.

B1: biotinylated high affinity CD47 variant N3612 C15G (designed binder)
chain: WQPPLLFNKTKSVEFTFGNDTVVIPCFVTNMEAQNTTEVYVKWKFKGRDIYTFDGQANKSTVPTDFSSAKIEVSQLLKGDASLKMDKSDAVSHTGNYTCEVTELTREGETIIELKYRVVSGLNDIFEAQKIEWHE
modifications: biotin on the biotin acceptor peptide tag (BirA ligase)
notes: An 8x histidine tag is probably also present (Ni-NTA purification)
B2: N3612 F14C coupled to Alexa Fluor 647 (designed binder)
chain: WQPPLLFNKTKSVEFTCGNDTVVIPCFVTNMEAQNTTEVYVKWKFKGRDIYTFDGQANKSTVPTDFSSAKIEVSQLLKGDASLKMDKSDAVSHTGNYTCEVTELTREGETIIELKYRVVSHHHHHHHH
modifications: Alexa Fluor 647 maleimide on the cysteine at position 14 (F14C, mature CD47 numbering)
B3: N3612 C15 coupled to Alexa Fluor 647 (designed binder)
chain: B2 chain with C17F, G18C
modifications: Alexa Fluor 647 (maleimide chemistry) on the cysteine at position 15 (mature CD47 numbering)
notes: The production of this form is not described separately

These binders were tested against T1, SIRPα a1d1 expressed on yeast (human, UniProt P78324 31-149, limits assumed) (assay: flow cytometry titration on yeast expressing SIRPα a1d1).
T1 construct: domain: domain 1; also called SIRPα a1d1-expressing yeast
T1 sequence (P78324 31-149 limits assumed): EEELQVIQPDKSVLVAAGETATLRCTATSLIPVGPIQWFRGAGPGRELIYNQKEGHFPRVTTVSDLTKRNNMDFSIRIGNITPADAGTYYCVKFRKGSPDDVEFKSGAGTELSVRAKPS
Excerpt: FIG. 6B Graph showing binding of different CD47 species to SIRPα a1d1-expressing yeast in titration experiments. […] FIG. 6C Graph showing binding to SIRPα a2d1-expressing yeast in titration experiments (CD47 species are the same as in FIG. 6B).
High affinity CD47 variants were modified to produce diagnostic agents. […] In the original high affinity CD47 variants isolated, the cysteine at position 15 (C15) had been changed to a G (C15G variants). To enable coupling of high affinity CD47 variants to a fluorescent moiety, position 15 was reverted to a Cysteine (C15) or the Phenylalanine (F) at position 14 was changed to a Cysteine (F14C). Binding of such reagents to SIRPα was tested. […] As shown in these figures, the high affinity CD47 reagents can detect SIRPα expression on cells, both engineered and non-engineered, much better than the wildtype molecule. Indeed, as show in FIG. 6D, these reagents can perform as well as anti-SIRPα antibody in such assays.

EC50 (read off the curve) [nM]	Binder
~3	B1
~5	B2
~5	B3
